Reference: patent publication US20150024955

Key:
[1] = target: mixture of recombinant PP1 isoforms (α, β, and γ; Upstate)

HDAC7-GFP fusion protein, sequence (Q8C2B3 whole entry, the tested form may be a part): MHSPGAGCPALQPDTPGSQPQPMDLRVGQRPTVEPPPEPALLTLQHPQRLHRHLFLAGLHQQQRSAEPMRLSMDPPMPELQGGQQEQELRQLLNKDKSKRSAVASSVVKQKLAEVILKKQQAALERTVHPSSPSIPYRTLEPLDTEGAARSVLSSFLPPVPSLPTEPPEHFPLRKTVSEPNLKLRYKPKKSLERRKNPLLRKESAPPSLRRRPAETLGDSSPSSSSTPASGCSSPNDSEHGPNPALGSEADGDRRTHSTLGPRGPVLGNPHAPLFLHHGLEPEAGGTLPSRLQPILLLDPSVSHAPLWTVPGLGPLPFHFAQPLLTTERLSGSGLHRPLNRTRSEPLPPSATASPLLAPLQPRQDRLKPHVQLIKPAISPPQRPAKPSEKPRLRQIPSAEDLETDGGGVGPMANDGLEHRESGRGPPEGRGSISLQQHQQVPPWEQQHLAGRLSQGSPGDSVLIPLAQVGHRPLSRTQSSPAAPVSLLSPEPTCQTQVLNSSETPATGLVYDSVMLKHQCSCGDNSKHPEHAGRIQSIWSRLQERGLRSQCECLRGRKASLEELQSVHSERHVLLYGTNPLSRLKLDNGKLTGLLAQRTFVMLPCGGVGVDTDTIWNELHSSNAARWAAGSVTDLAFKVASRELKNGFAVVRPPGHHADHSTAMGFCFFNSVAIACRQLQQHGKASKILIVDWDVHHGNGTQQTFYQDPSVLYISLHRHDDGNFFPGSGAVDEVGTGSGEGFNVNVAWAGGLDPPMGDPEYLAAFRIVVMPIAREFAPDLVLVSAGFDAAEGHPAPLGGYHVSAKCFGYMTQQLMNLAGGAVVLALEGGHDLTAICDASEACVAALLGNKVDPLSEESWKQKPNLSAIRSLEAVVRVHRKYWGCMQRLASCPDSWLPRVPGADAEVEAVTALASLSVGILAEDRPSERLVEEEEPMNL

| Protein | in vitro dephosphorylation assay (30 minutes at 30° C.), Western blot with phospho HDAC7 antibodies [1] | nuclear exclusion of HDAC7-GFP after siRNA knockdown of myosin phosphatase subunits (immunofluorescence microscopy) (HDAC7-GFP fusion protein) |
| --- | --- | --- |
| FLAG-tagged human HDAC7, phosphorylated (from DO11.10-HDAC7-Flag cells treated with PMA or anti-CD3) (protein) MDLRVGQRPPVEPPPEPTLLALQRPQRLHHHLFLAGLQQQRSVEPMRLSMDTPMPELQVGPQEQELRQLLHKDKSKRSAVASSVVKQKLAEVILKKQQAALERTVHPNSPGIPYRTLEPLETEGATRSMLSSFLPPVPSLPSDPPEHFPLRKTVSEPNLKLRYKPKKSLERRKNPLLRKESAPPSLRRRPAETLGDSSPSSSSTPASGCSSPNDSEHGPNPILGSEADSDRRTHPTLGPRGPILGSPHTPLFLPHGLEPEAGGTLPSRLQPILLLDPSGSHAPLLTVPGLGPLPFHFAQSLMTTERLSGSGLHWPLSRTRSEPLPPSATAPPPPGPMQPRLEQLKTHVQVIKRSAKPSEKPRLRQIPSAEDLETDGGGPGQVVDDGLEHRELGHGQPEARGPAPLQQHPQVLLWEQQRLAGRLPRGSTGDTVLLPLAQGGHRPLSRAQSSPAAPASLSAPEPASQARVLSSSETPARTLPFTTGLIYDSVMLKHQCSCGDNSRHPEHAGRIQSIWSRLQERGLRSQCECLRGRKASLEELQSVHSERHVLLYGTNPLSRLKLDNGKLAGLLAQRMFVMLPCGGVGVDTDTIWNELHSSNAARWAAGSVTDLAFKVASRELKNGFAVVRPPGHHADHSTAMGFCFFNSVAIACRQLQQQSKASKILIVDWDVHHGNGTQQTFYQDPSVLYISLHRHDDGNFFPGSGAVDEVGAGSGEGFNVNVAWAGGLDPPMGDPEYLAAFRIVVMPIAREFSPDLVLVSAGFDAAEGHPAPLGGYHVSAKCFGYMTQQLMNLAGGAVVLALEGGHDLTAICDASEACVAALLGNRVDPLSEEGWKQKPNLNAIRSLEAVIRVHSKYWGCMQRLASCPDSWVPRVPGADKEEVEAVTALASLSVGILAEDRPSEQLVEEEEPMNL | recombinant PP1 treatment totally abolished the reactivity to the different phospho HDAC7 antibodies | – |
| myosin phosphatase (complex of PP1β and MYPT1) (protein) chain 1: ADGELNVDSLITRLLEVRGCRPGKIVQMTEAEVRGLCIKSREIFLSQPILLELEAPLKICGDIHGQYTDLLRLFEYGGFPPEANYLFLGDYVDRGKQSLETICLLLAYKIKYPENFFLLRGNHECASINRIYGFYDECKRRFNIKLWKTFTDCFNCLPIAAIVDEKIFCCHGGLSPDLQSMEQIRRIMRPTDVPDTGLLCDLLWSDPDKDVQGWGENDRGVSFTFGADVVSKFLNRHDLDLICRAHQVVEDGYEFFAKRQLVTLFSAPNYCGEFDNAGGMMSVDETLMCSFQILKPSEKKAKYQYGGLNSGRPVTPPRTANPPKKR chain 2: MKMADAKQKRNEQLKRWIGSETDLEPPVVKRQKTKVKFDDGAVFLAACSSGDTDEVLKLLHRGADINYANVDGLTALHQACIDDNVDMVKFLVENGANINQPDNEGWIPLHAAASCGYLDIAEFLIGQGAHVGAVNSEGDTPLDIAEEEAMEELLQNEVNRQGVDIEAARKEEERVMLRDARQWLNSGHISDVRHAKSGGTALHVAAAKGYTEVLKLLIQAGYDVNIKDYDGWTPLHAAAHWGKEEACRILVDNLCDMETVNKVGQTAFDVADEDILGYLEELQKKQTLLHSEKRDKKSPLIESTANMENNQPQKAFKNKETLIIEPEKNASRIESLEHEKADEEEEGKKDESSCSSEEDEEDDSESEAETDKTKPMASVSNAHTSSTQAAPAAVTAPTLSSNQGTPTSPVKKFPISTTKISPKEEERKDESPASWRLGLRKTGSYGALAEISASKEAQKEKDTAGVMRSASSPRLSSSLDNKEKEKDNKGTRLAYVTPTIPRRLASTSDIEEKENRESSSLRTSSSYTRRKWEDDLKKNSSINEGSTYHRSCSFGRRQDDLISCSVPSTTSTPTVTSAAGLQRSLPSSTSTAAKTPPGSSSAGTQSSTSNRLWAEDSTEKEKDSAPTAVTIPVAPTVVNAAAPSTTTLTTTTAGTVSEVRERRRSYLTPVRDEESESQRKARSRQARQSRRSTQGVTLTDLQEAEKTIGRSRSTRTREQENEEKEKEEKEKQDKEKQEEKKESEASREDEYKQKYSRTYDETYTRYRPVSTSSSSAPSSSSLSTLGSTLYASSQLNRPNSLVGITSAYSRGLAKENEREGEKKEEEKEGEDKSQPKSIRERRRPREKRRSTGVSFWTQDSDENEQERQSDTEDGSSKRETQTDSVSRYDSSSTSSSDRYDSLLGRSASYSYLEDRKPYSSRLEKDDSTDFKKLYEQILAENEKLKAQLHDTNMELTDLKLQLEKATQRQERFADRSQLEMEKRERRALERRISEMEEELKMLPDLKADNQRLKDENGALIRVISKLSK | – | HDAC7 nuclear re-entry was significantly delayed at later time points |
